T1: CD3-specific binding domain (SEQ ID NO: 3) (biotinylated when used as immobilized SPR ligand (site not stated))
T1 construct: also called α-CD3 DARPin
T1 chain: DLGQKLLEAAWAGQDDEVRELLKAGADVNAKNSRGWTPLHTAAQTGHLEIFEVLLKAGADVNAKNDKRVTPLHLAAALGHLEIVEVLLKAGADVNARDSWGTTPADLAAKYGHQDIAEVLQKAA

T2: 2-in-1 DARPin 22 (SEQ ID NO: 91)
T2 chain: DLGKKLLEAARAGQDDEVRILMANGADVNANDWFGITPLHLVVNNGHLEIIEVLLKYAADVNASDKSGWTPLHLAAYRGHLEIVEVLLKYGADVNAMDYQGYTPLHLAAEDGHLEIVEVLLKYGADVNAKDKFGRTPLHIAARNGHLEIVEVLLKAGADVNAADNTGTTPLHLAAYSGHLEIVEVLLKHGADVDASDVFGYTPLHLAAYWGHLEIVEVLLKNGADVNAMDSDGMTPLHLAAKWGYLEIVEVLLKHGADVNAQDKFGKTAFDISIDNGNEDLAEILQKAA

T3: 2-in-1 DARPin 21 (SEQ ID NO: 90)
T3 chain: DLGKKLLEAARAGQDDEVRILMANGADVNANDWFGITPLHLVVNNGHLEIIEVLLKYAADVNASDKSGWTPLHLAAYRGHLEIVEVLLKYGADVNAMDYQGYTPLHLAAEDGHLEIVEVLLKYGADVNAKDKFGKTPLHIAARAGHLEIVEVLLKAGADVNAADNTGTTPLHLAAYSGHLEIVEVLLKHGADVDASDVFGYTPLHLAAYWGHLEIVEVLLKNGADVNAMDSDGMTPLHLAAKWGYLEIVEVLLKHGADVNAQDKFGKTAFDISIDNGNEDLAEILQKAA


Key:
[1] = target: T1, CD3-specific binding domain (SEQ ID NO: …); assay: SPR (ProteOn), biotinylated CD3-specific binding domain immobilized, multi-trace 50-0.195 nM, 25 C
VEGF165 = target: T4, VEGF165 (UniProt P15692-4 27-191, biotinylated in the ELISA of Example 4 (site not stated)); assay: SPR (ProteOn), VEGF165 immobilized, multi-trace
T4 construct: also called biotinylated VEGF165; soluble VEGF

[2] = target: T2, 2-in-1 DARPin 22 (SEQ ID NO: 91)
[3] = target: T3, 2-in-1 DARPin 21 (SEQ ID NO: 90)

Binder | Kd [1] [nM] | koff [1] [s⁻¹] | kon [1] [M⁻¹ s⁻¹] | binding result (VEGF165) | IC50 [2] [nM] | IC50 [3] [nM]
α-CD3 DARPin-blocker (SEQ ID NO: 2) (designed binder) DLGKKLLQAARAGQLDEVRELLKAGADVNAKDAKGLTPLHLAAYHGHLEIVEVLLKAGADVNAKDVYGWTPLHIAAASGHLEIVEVLLKAGADVNAKDWLGWTPLHLAASHGHLEIVEVLLKAGADVNAQDKSGKTPADLAARAGHQDIAEVLQKAA | 0.11 | 8.92e-05 | 826000 | no binding (tested: 50 nM (highest concentration run)) |  | 
Aminoglycoside phosphotransferase (APH) (enzyme) MRGSHHHHHHGSAKMRISPELKKLIEKYRSVKDTEGMSPAKVYKLVGENENLYLKMTDSRYKGTTYDVEREKDMMLWLEGKLPVPKVLHFERHDGWSNLLMSEADGVLCSEEYEDEQSPEKIIELYAECIRLFHSIDISDCPYTNSLDSRLAELDYLLNNDLADVDSENWEEDTPFKDPRELYDFLKTEKPEEELVFSHGDLGDSNIFVKDGKVSGFIDLGRSGRADKWYDIAFCVRSIREDIGEEQYVELFFDLLGIKPDWEKIKYYILLDELF |  |  |  |  | 47 | 55
